Measured values as given in patent publication US20240294593A1 (Genentech, published 2024).

Assays:
human PD-1-His [1] = target: T1, human PD-1-His (human, UniProt Q15116 25-167, limits assumed); experiment: Octet (BLI) sensorgram; XENP29713 loaded on the biosensor, analyte Sample ID XENP15593 at 300, 30, 3 nM [Cont.]
T1 construct: Antigen of the Octet assays; not shown: His tag

human PD-1-His [2] = target: T1, human PD-1-His; experiment: Octet (BLI) sensorgram; XENP29714 loaded on the biosensor, analyte Sample ID XENP15593 at 300, 30, 3 nM [Cont.]

T1 sequence (Q15116 25-167 limits assumed): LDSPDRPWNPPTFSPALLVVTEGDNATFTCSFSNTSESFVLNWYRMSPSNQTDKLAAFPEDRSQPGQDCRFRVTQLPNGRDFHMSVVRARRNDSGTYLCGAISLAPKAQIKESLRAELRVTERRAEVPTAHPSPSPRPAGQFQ

binding result (human PD-1-His [1]) | binding result (human PD-1-His [2]) | Binder
no binding (tested: 300 nM) | – | XENP29713 (W100E) (antibody, V domains shown, the panel label gives the substitution; also called mAb C[PD-1]_H1L1 W100E (Kabat) variant; copies: 2 + 2) VH: EVQLVESGGGLVQPGGSLRLSCAASGFTFSSFGMHWVRQAPGKGLEWVSYISSGSSIIYYADSVKGRFTISRDNAKNSLYLQMNSLRAEDTAVYYCARGGRLVESPDYWGQGTLVTVSS VL: DIVMTQSPDSLAVSLGERATINCKSSQSLLNSGNQKNYLTWYQQKPGQPPKLLIYWASTRESGVPDRFTGSGSGTDFTLTISSLQAEDVAVYYCQNDYSYPFTFGSGTKLEIKR
– | no binding (tested: 300 nM) | XENP29714 (W100R) (antibody, V domains shown, the panel label gives the substitution; also called mAb C[PD-1]_H1L1 W100R (Kabat) variant; copies: 2 + 2) VH: EVQLVESGGGLVQPGGSLRLSCAASGFTFSSFGMHWVRQAPGKGLEWVSYISSGSSIIYYADSVKGRFTISRDNAKNSLYLQMNSLRAEDTAVYYCARGGRLVRSPDYWGQGTLVTVSS VL: DIVMTQSPDSLAVSLGERATINCKSSQSLLNSGNQKNYLTWYQQKPGQPPKLLIYWASTRESGVPDRFTGSGSGTDFTLTISSLQAEDVAVYYCQNDYSYPFTFGSGTKLEIKR
